Results: US11506662B2, “Detection, identification, and purification of degradative and non-degradative enzymes in biological samples” (The Regents of the University of California, priority 2016, dated 2022)
Blank lines part the entries; values can stand above or below the molecule they belong to. Starred links: 1 amine or outer side, 2 acyl side, 3 side chain; linkers in the order of their positions; H or OH if unused. Non-standard residues stand in square brackets, D forms with d. *: point of attachment. BFL = BODIPY FL (diaminoethyl-BODIPY FL label), CC1=CC(C)=[N+]2C1=Cc1ccc(CCC(=O)NCCN*)n1[B-]2(F)F; diaminoethyl = diaminoethyl linker to BODIPY FL label; Suc = O=C(CCC(=O)[*:2])[*:1]; Cy5 = Cy5 fluorescent dye; Nle = CCCC[C@H](N)C(=O)O

Legend:
Format in all cases: biochemical
thrombin [1] = molecular target: T1, thrombin (Homo sapiens, UniProt P00734); assay: Coagulation monitoring: thrombin activity in whole blood of subjects taking anticoagulant vs control
T1 construct: from tissue; host or cells: whole blood of subjects
Description: To detect thrombin activity and monitor coagulation, the thrombin targeted charge-changing peptide shown in FIG. 9 (and with the sequence of Ac-N-D^−-D^−-Nle-T-P-R^+//G-S-A-G-A-G-A-G-diamino-ethyl-BFL (SEQ ID NO:1)) was incubated in a drop of whole blood from subjects taking an anticoagulant (aspirin) and from control subjects that were not taking an anticoagulant. Fluorescence signal, indicating specific binding of the peptide to thrombin in the whole blood sample, was measured at various time points up to 30 minutes.

thrombin [2] = molecular target: T1, thrombin; assay: Thrombin detection using thrombin-specific charge-changing peptide substrate in 1×PBS or citrated blood; details: 0-100 nM
Description: Various concentrations (0 nM, 0.5 nM, 5 nM, 10 nM, 20 nM, or 100 nM) of the thrombin targeted charge-changing peptide shown in FIG. 9 (and with the sequence Ac-N-D^−-D^−-Nle-T-P-R^+//G-S-A-G-A-G-A-G-diamino-ethyl-BFL (SEQ ID NO:1)) was incubated in either 1×PBS (FIG. 10A) or citrated blood (FIG. 10B), both of which contained thrombin. After incubation, fluorescence was measured, indicating specific binding of the peptide to the thrombin in the sample.

thrombin [3] = molecular target: T1, thrombin; assay: Whole blood thrombin detection with charge-changing peptide; details: untreated whole blood
Description: The thrombin targeted charge-changing peptide shown in FIG. 9 (and with the sequence Ac-N-D^−-D^−-Nle-T-P-R^+//G-S-A-G-A-G-A-G-diamino-ethyl-BFL (SEQ ID NO:1)) was incubated in untreated whole blood for up to 33 minutes. A negative control was also prepared See FIG. 11A. Fluorescence was measured at 3 minute intervals during incubation.

cathepsin-S = cathepsin-S (Homo sapiens, UniProt P25774); assay: Cathepsin-S detection in buffer with charge-changing peptide; details: 1×PBS buffer with varying concentrations of cathepsin-S
Description: The cathepsin-S targeted charge-changing peptide shown in FIG. 9 (and with the sequence N-SUC^−-E^−-G-R^+-W-H-T-V-G//L-R^+-W-E^−-C(Cy5^−)-R^+CO-NH2 (SEQ ID NO:5)) was incubated in 1×PBS buffer with varying concentrations of cathepsin-S. After incubation, fluorescence was measured, indicating specific binding of the peptide to the cathepsin-S in the sample.

cathepsin-S, sequence (P25774 115-331, species assumed): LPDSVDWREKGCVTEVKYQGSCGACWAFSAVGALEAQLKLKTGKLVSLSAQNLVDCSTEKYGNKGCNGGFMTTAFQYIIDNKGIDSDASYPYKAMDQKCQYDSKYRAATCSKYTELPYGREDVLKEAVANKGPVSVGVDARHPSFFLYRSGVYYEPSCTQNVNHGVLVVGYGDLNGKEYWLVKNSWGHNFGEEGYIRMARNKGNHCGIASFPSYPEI

Rate of fluorescence increase (thrombin activity), anticoagulant subjects vs control (thrombin [1]; whole blood from subjects taking aspirin vs subjects not taking an anticoagulant, up to 30 minutes): more quickly in the control group
Molecule: CC(=O)Oc1ccccc1C(=O)O [aspirin, reference compound]

Time of peak fluorescence values (thrombin [3]; incubation up to 33 minutes): about 18 minutes
Fluorescence signal during incubation (thrombin [3]; up to 33 minutes, measured at 3 minute intervals): increased over time
Molecule: Ac-N-D^−-D^−-Nle-T-P-R^+//G-S-A-G-A-G-A-G-diamino-ethyl-BFL (Ac-NDD[Nle]TPRGSAGAGAG-{diaminoethyl-BFL}) [SEQ ID NO:1, thrombin targeted charge-changing fluorescent peptide substrate]
Fluorescence signal (thrombin activity) over time (thrombin [1]; drop of whole blood, time points up to 30 minutes, both subject groups): increased in both subject groups over time
Fluorescence after incubation (thrombin [2]; 1×PBS containing thrombin): Fluorescence increased with increasing thrombin concentration
Fluorescence after incubation (thrombin [2]; citrated blood containing thrombin): Fluorescence increased with increasing thrombin concentration

Molecule: N-SUC^−-E^−G-R^+-W-H-T-V-G//L-R^+-W-E^−-C(Cy5^−)-R^+-CO-NH2 (Suc-EGRWHTVGLRWEC(Cy5)R-NH2) [SEQ ID NO:5, cathepsin-S targeted charge-changing fluorescent peptide substrate]
Fluorescence after incubation (cathepsin-S): Fluorescence increased with increasing cathepsin-S concentration
